{"source": "paper PMC4807281", "about": "“Glutathionylation of the Bacterial Hsp70 Chaperone DnaK Provides a Link between Oxidative Stress and the Heat Shock Response” (The Journal of Biological Chemistry, 2016)", "molecular_target": "Cys15 (UniProt position 15, GTTNSCVAIMD)", "assay": "UV-vis", "settings": "25 °C; 100 mM KCl, 5 mM MgCl2 (plus KOH added during titration); Buffer B: 50 mM Tris-HCl, pH 7.5, 100 mM KCl, 5 mM MgCl2. The pH was raised by stepwise addition of 6 N KOH in Buffer B.; Reduced (free thiol) DnaK with no nucleotide or peptide added (apo state), 15 μM protein"}
{"substance": "Chaperone protein DnaK (Hsp70) (Escherichia coli)", "values": [{"measurement": "pKa", "result": "about 12"}]}
